# Source: the supplement of paper PMC7877785
# ± gives the uncertainty stated by the source.
# Assay: self-splicing fitness, log relative to wild type (ln ratio); higher = more splicing; Tetrahymena group I intron in knt gene, E. coli kanamycin selection, DiMSum; sequences stand for … in CUCUCU…GGAGGGAAAAGUUAUCAGGCAUGCACCUGGUAGCUAGUCUUUAAACCAAUAGAUUGCAUCGGUUUAAAAGGCAAGACCGUCAAAUUGCGGGAAAGGGGUCAACAGCCGUUCAGUACCAAGUCUCAGGGGAAACUUUGAGAUGGCCUUGCAAAGGGUAUGGUAAUAAGCUGACGGACAUGGUCCUAACCACGCAGCCAAGUCCUAAGUCAACAGAUCUUCUGUUGAUAUGGAUGCAGUUCACAGACUAAAUGUCGGUCGGGGAAGAUGUAUUCUUCUCAUAAGAUAUAGUCGGACCUCUCCUUAAUGGGAGCUAGCGGAUGAAGUGAUGCAACACUGGAGCCGCUGGGAACUAAUUUGUAUGCGAAAGUAUAUUGAUUAGUUUUGGAGUACUCGUGGUCG
# How it was run: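 Library with all eight P1ex-region intron nucleotides randomised, intron inside the knt kanamycin-resistance gene on pET-22b(+), in E. coli BL21(DE3). Cells grew overnight at 37°C or 30°C on LB agar with or without 25 μg/mL kanamycin (plus 100 μg/mL carbenicillin, 50 μM IPTG, 0.2% rhamnose), in six replicate transformations. Pooled colonies were amplicon-sequenced on Illumina HiSeq 2500. DiMSum fitness is the error-weighted combination of wild-type-normalised replicate fold changes, kanamycin versus none.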
Sequence,self-splicing fitness (ln) (30 °C),self-splicing fitness (ln) (37 °C)
CAUCAGCAAUAUUACGUUUU,-2.67 ± 0.1,-1.8 ± 0.11
CAUGAGCAAUAUUACGCACU,–,-1.96 ± 0.24
CAUGAGCAAUAUUACGCAGU,-4.2 ± 0.39,-2.63 ± 0.23
CAUGAGCAAUAUUACGCAUA,-2.29 ± 0.26,-1.78 ± 0.23
CAUGAGCAAUAUUACGCCGA,-2.14 ± 0.47,-2.48 ± 0.31
CAUGAGCAAUAUUACGCGAA,-3.03 ± 0.17,-1.57 ± 0.15
CAUGAGCAAUAUUACGCGGC,-2.22 ± 0.43,-2.58 ± 0.29
CAUGAGCAAUAUUACGCUUC,–,-2.38 ± 0.32
CAUGAGCAAUAUUACGGGUA,-2.86 ± 0.28,-2.23 ± 0.28
CAUGAGCAAUAUUACGGUAC,-2.67 ± 0.41,-2.32 ± 0.34
CAUGAGCAAUAUUACGUAAG,-0.906 ± 0.096,-0.568 ± 0.11
CAUGAGCAAUAUUACGUGAU,-2.58 ± 0.14,-2.68 ± 0.2
CAUGAGCAAUAUUACGUGCC,-3.97 ± 0.33,-2.47 ± 0.32
CAUGAGCAAUAUUACGUUAC,-3.24 ± 0.15,-3.39 ± 0.2
CAUUAGCAAUAUUACGAAAA,-2.21 ± 0.46,-1.46 ± 0.45
CAUUAGCAAUAUUACGAACG,0.479 ± 0.09,0.736 ± 0.099
CAUUAGCAAUAUUACGAAGU,–,-1.37 ± 0.44
CAUUAGCAAUAUUACGAGCC,-2.89 ± 0.23,-2.08 ± 0.27
CAUUAGCAAUAUUACGAUCC,–,0.538 ± 0.22
CAUUAGCAAUAUUACGCACC,-2.94 ± 0.23,-1.53 ± 0.19
CAUUAGCAAUAUUACGCCAA,-2.88 ± 0.33,-2.63 ± 0.48
CAUUAGCAAUAUUACGCCCG,0.404 ± 0.13,0.579 ± 0.17
CAUUAGCAAUAUUACGCCGA,-2.32 ± 0.19,-2.18 ± 0.2
CAUUAGCAAUAUUACGCCGC,-1.43 ± 0.29,–
CAUUAGCAAUAUUACGCGCA,-1.39 ± 0.16,-1.52 ± 0.17

Sequence,self-splicing fitness (ln) (30 °C),self-splicing fitness (ln) (37 °C)
CAUUAGCAAUAUUACGCGUU,-2.44 ± 0.12,-1.48 ± 0.17
CAUUAGCAAUAUUACGGAAA,-3.86 ± 0.47,-2.52 ± 0.3
CAUUAGCAAUAUUACGGAGA,-3.12 ± 0.41,-2.39 ± 0.3
CAUUAGCAAUAUUACGGAUA,-2.16 ± 0.12,-1.42 ± 0.13
CAUUAGCAAUAUUACGGCGA,-2.09 ± 0.3,-3.32 ± 0.47
CAUUAGCAAUAUUACGGCGG,0.0154 ± 0.093,0.252 ± 0.12
CAUUAGCAAUAUUACGGGCG,-0.183 ± 0.092,0.436 ± 0.098
CAUUAGCAAUAUUACGGGCU,-1.68 ± 0.2,-2.7 ± 0.3
CAUUAGCAAUAUUACGGGGC,-3.44 ± 0.23,-1.95 ± 0.23
CAUUAGCAAUAUUACGGUCA,-2.02 ± 0.3,-1.63 ± 0.3
CAUUAGCAAUAUUACGGUCU,-3.48 ± 0.31,-2.22 ± 0.29
CAUUAGCAAUAUUACGUAGC,-3.25 ± 0.19,-2.4 ± 0.17
CAUUAGCAAUAUUACGUAUA,-2.34 ± 0.14,-0.81 ± 0.12
CAUUAGCAAUAUUACGUCGG,-0.0974 ± 0.13,0.403 ± 0.14
CAUUAGCAAUAUUACGUCUC,-3.28 ± 0.27,-1.76 ± 0.23
CAUUAGCAAUAUUACGUGUG,-2.91 ± 0.19,-3.15 ± 0.19
CCAAAGCAAUAUUACGAAUU,-3.58 ± 0.15,-3.46 ± 0.19
CCAAAGCAAUAUUACGACUA,-2.34 ± 0.23,-2.7 ± 0.29
CCAAAGCAAUAUUACGACUG,-0.588 ± 0.071,-0.0799 ± 0.091
CCAAAGCAAUAUUACGAUUC,-3 ± 0.31,-1.71 ± 0.34
CCAAAGCAAUAUUACGAUUU,-3.85 ± 0.2,-1.98 ± 0.19
CCAAAGCAAUAUUACGCUAA,-2.86 ± 0.23,-2.7 ± 0.3
CCAAAGCAAUAUUACGGAAU,-4.11 ± 0.39,-2.95 ± 0.22
CCAAAGCAAUAUUACGGGGA,-3.41 ± 0.16,-2.93 ± 0.17
